We go through four molecules from paper PMC7160669 (Biochemistry, 2019).

The term Kd denotes a measure of binding affinity in units of concentration.

The chains are these.
B2: CpfC (protein)
chain: MTKKMGLLVMAYGTPYKESDIEPYYTDIRHGKRPSEEELQDLKDRYEFIGGLSPLAGTTDDQADALVSALNKAYADVEFKLYLGLKHISPFIEDAVEQMHNDGITEAITVVLAPHYSSFSVGSYDKRADEEAAKYGIQLTHVKHYYEQPKFIEYWTNKVNETLAQIPEEEHKDTVLVVSAHSLPKGLIEKNNDPYPQELEHTALLIKEQSNIEHIAIGWQSEGNTGTPWLGPDVQDLTRDLYEKHQYKNFIYTPVGFVCEHLEVLYDNDYECKVVCDDIGANYYRPKMPNTHPLFIGAIIDEIKSIF

The target of assay [1] is T1, ChdC (SaChdC; coproheme decarboxylase) (Staphylococcus aureus, UniProt A6QEP0).
T1 sequence (A6QEP0 1-250): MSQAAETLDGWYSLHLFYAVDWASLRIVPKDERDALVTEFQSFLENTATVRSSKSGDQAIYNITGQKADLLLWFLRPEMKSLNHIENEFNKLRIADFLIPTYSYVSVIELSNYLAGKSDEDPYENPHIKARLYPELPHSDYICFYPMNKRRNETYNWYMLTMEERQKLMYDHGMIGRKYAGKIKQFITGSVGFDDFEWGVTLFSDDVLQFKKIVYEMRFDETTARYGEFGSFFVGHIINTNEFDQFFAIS
In words: tryptophan fluorescence quenching. The assay is classed as binding. The following applies: 50 mM Tris pH 8, 150 mM NaCl, 25 °C; Langmuir-Hill fit.

Assay [2] deals with T2, CpfC (coproporphyrin ferrochelatase; HemH) (Staphylococcus aureus, UniProt P64125).
T2 sequence (P64125 1-307): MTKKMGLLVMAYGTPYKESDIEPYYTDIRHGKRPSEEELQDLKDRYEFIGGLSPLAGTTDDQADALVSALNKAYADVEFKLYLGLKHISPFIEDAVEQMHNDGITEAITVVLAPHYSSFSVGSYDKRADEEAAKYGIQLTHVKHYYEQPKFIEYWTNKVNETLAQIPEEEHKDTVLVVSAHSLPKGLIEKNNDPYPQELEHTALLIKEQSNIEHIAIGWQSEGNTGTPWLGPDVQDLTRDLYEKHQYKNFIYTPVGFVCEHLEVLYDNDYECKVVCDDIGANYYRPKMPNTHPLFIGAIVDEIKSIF
In words: tryptophan fluorescence quenching. The assay is classed as binding. The following applies: 50 mM Tris pH 8, 150 mM NaCl, 25 °C.

Assay [3] deals with T3, ChdC (Staphylococcus aureus, UniProt Q2FJ56).
T3 chain: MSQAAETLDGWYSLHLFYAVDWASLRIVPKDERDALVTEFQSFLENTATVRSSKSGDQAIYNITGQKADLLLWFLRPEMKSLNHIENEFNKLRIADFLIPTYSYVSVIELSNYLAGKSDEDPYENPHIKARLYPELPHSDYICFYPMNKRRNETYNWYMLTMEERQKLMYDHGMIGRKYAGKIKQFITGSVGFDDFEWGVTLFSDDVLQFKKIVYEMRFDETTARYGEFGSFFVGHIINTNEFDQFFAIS
In words: UV-vis titration.

Assay [4] has as its target T3, ChdC. In words: UV-vis titration and fluorescence quenching.
For the assay “CpfC”, the target named is B2. In words: UV-vis titration.

For the molecule `CC1=C(CCC(=O)O)c2cc3nc(cc4[nH]c(cc5[nH]c(cc1n2)c(C)c5CCC(=O)O)c(CCC(=O)O)c4C)C(CCC(=O)O)=C3C` [coproporphyrin], the KD entry in assay [1] is reported as “ChdC binds coproporphyrin with an affinity that resembles that for coproheme”; in assay [2], “affinities of CpfC and/or ChdC for coproporphyrin and/or coproheme were measured titrimetrically”.

B1: CpfC (protein)
chain: MTKKMGLLVMAYGTPYKESDIEPYYTDIRHGKRPSEEELQDLKDRYEFIGGLSPLAGTTDDQADALVSALNKAYADVEFKLYLGLKHISPFIEDAVEQMHNDGITEAITVVLAPHYSSFSVGSYDKRADEEAAKYGIQLTHVKHYYEQPKFIEYWTNKVNETLAQIPEEEHKDTVLVVSAHSLPKGLIEKNNDPYPQELEHTALLIKEQSNIEHIAIGWQSEGNTGTPWLGPDVQDLTRDLYEKHQYKNFIYTPVGFVCEHLEVLYDNDYECKVVCDDIGANYYRPKMPNTHPLFIGAIIDEIKSIF
modifications: coproporphyrin III bound to CpfC
For B1, binding with ChdC [3] was put at a Kd of 80 µM. Regarding B2, the Kd with ChdC [4] worked out at 17 µM.

B3: ChdC (protein)
chain: MSQAAETLDGWYSLHLFYAVDWASLRIVPKDERDALVTEFQSFLENTATVRSSKSGDQAIYNITGQKADLLLWFLRPEMKSLNHIENEFNKLRIADFLIPTYSYVSVIELSNYLAGKSDEDPYENPHIKARLYPELPHSDYICFYPMNKRRNETYNWYMLTMEERQKLMYDHGMIGRKYAGKIKQFITGSVGFDDFEWGVTLFSDDVLQFKKIVYEMRFDETTARYGEFGSFFVGHIINTNEFDQFFAIS
modifications: coproporphyrin III bound to ChdC
Take B3: the Kd with CpfC was 40 µM.
